Experimental data as given in patent CN110590951A (ANMENGDE MEDICAL TECH SHANGHAI CO LTD, dated 2019).

Experiments:
[1] = target: T1, 重组鼠ROR1蛋白 (recombinant mouse ROR1 protein, ACROBiosystems RO1-M5221) (mouse, UniProt Q9Z139 30-403); assay: ELISA, recombinant mouse ROR1 coated at 1 μg/mL, G3 titrated from 15 μg/ml
T1 construct: Bought protein

[2] = target: T2, 重组人ROR1蛋白 (recombinant human ROR1 protein, ACROBiosystems RO1-H522y) (human, UniProt Q01973 30-403); assay: ELISA, recombinant human ROR1 coated at 1 μg/mL, G3 titrated from 0.6 μg/ml
T2 construct: Bought protein
T2 sequence (Q01973 30-403 limits assumed): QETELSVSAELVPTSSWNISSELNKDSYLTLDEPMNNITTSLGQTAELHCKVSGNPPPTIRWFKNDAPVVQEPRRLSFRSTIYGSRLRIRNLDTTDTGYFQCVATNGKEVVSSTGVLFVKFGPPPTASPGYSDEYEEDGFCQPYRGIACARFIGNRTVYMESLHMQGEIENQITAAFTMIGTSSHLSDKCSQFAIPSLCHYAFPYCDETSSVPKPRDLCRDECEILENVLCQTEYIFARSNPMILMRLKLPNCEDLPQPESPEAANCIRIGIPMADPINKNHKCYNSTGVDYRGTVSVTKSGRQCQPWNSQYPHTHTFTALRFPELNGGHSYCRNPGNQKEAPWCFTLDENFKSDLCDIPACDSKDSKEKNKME

[3] = target: T3, 人ROR1蛋白卷曲(Frizzled)域 (recombinant ROR1 Frizzled domain, ACROBiosystems RO1-H5222) (human, UniProt Q01973 165-305); assay: ELISA, recombinant ROR1 Frizzled domain coated at 1 μg/mL, G3 titrated from 20 μg/ml
T3 construct: domain: 卷曲(Frizzled)域; Bought domain protein; also called 卷曲结构域; Frizzled结构域
T3 sequence (Q01973 165-305 limits assumed): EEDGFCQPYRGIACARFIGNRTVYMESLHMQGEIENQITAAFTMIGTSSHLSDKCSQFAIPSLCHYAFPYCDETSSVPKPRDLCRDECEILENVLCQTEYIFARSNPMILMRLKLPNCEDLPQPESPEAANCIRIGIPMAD

[4] = target: T4, 人ROR1 on the cell surface (endogenous on JeKo-1 cells; overexpressed on CHO-K1-hROR1 cells) (human, UniProt Q01973 30-937); assay: Flow cytometry on JeKo-1 cells (endogenous ROR1), G3 titrated from 20 μg/mL
T4 construct: whole, on cells; also called JeKo-1细胞ROR1蛋白; CHO-K1-hROR1细胞表面的ROR1
T4 sequence (Q01973 30-937): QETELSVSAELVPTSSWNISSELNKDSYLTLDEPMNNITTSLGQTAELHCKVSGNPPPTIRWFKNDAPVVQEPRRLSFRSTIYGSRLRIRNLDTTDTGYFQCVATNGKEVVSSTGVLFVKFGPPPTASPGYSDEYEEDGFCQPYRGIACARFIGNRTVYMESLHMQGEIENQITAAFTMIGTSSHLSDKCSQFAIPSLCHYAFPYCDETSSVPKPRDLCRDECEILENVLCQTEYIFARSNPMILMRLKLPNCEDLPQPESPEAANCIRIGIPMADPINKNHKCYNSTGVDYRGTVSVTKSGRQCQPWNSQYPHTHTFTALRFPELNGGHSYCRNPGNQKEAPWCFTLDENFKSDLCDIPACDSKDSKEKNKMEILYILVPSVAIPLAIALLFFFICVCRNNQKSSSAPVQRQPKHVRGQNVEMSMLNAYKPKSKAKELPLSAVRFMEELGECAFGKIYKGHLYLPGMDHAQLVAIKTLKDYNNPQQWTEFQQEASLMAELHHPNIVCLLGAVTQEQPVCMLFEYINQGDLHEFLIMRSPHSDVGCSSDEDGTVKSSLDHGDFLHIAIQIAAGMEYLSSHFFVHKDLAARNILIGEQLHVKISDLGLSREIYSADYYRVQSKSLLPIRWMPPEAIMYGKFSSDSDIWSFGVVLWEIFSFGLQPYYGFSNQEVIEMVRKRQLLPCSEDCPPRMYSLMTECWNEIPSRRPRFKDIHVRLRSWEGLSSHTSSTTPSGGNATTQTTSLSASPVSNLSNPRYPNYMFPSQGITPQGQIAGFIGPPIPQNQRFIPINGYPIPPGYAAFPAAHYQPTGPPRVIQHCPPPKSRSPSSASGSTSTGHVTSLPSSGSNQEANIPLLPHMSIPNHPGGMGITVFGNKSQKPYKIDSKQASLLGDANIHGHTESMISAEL

Measured: binding result

T1 sequence (Q9Z139 30-403 limits assumed): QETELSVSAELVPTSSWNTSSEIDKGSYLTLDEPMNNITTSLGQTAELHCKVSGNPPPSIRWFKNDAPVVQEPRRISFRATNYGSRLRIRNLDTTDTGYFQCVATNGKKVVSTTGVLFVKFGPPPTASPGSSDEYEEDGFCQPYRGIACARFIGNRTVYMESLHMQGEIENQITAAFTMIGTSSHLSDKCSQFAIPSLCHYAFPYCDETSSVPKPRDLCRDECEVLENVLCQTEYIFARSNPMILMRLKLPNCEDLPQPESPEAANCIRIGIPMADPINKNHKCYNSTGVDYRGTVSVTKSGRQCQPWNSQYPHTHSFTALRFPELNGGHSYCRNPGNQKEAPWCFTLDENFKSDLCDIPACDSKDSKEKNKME

B1: 抗ROR1的全人源单克隆抗体G3 (antibody, human IgG1, kappa, V domains shown)
VH: QVQLQQWGAGLLKPSETLSLTCAVYGGSFSGYYWSWIRQPPGKGLEWIGEINHSGSTSYNPSLKSRVTISVDTSKNQFSLKLSSVTAADTAVYYCARGHSSGWYRRYFDLWGRGTLVTVSS
VL: IVLTQSPATLSLSPGERATLSCRASQSVSSYLAWYQQKPGQAPRLLIYDASNRATGIPAKFSGSGSGTDFTLTISSLEPEDFAVYYCQQRSNWPPTFGGGTKVEIKR
notes: Full-length fully human IgG1/kappa, expressed in Expi-CHO-S and purified on Protein A (150 kDa); also called G3单克隆抗体; 抗人ROR1抗体G3
binds: all assays above
